Assay results from paper PMC11160874 (2024).

What was measured:
[1] = biological target: T1, microtubule (alpha/beta-tubulin, taxol-stabilized) (Sus scrofa, UniProt P02550); test: TIRF microscopy, no added salt
T1 chain 1: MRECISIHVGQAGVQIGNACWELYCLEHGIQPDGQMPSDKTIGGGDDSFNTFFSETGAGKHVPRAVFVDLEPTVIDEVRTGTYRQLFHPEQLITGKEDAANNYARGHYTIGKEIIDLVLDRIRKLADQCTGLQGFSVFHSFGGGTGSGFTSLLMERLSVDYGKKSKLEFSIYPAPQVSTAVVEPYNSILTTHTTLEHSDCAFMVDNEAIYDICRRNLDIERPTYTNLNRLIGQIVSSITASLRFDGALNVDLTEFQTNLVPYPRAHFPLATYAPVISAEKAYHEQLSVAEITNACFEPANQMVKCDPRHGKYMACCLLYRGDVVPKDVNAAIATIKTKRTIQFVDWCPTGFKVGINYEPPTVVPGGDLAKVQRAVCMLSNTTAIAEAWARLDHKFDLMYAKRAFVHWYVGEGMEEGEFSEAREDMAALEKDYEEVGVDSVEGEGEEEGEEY
T1 chain 2: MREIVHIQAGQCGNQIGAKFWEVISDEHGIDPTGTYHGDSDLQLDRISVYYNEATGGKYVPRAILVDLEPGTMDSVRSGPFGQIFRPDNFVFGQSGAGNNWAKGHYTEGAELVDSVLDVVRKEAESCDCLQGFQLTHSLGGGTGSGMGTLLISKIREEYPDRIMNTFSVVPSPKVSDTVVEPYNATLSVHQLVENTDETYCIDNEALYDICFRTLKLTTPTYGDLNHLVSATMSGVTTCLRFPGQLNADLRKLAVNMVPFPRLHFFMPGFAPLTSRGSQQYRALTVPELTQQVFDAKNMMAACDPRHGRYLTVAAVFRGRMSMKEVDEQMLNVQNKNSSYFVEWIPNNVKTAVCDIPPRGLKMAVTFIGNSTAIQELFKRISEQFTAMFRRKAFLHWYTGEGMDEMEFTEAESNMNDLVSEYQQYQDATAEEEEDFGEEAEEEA

[2] = biological target: T1, microtubule (alpha/beta-tubulin, …); test: TIRF microscopy, 150 mM salt

Kd [1]: ~33 nM | Kd [2]: ~600 nM
B1: HURP 1-285 (protein)
chain: MSSSHFASRHRKDISTEMIRTKIAHRKSLSQKENRHKEYERNRHFGLKDVNIPTLEGRILVELDETSQGLVPEKTNVKPRAMKTILGDQRKQMLQKYKEEKQLQKLKEQREKAKRGIFKVGRYRPDMPCFLLSNQNAVKAEPKKAIPSSVRITRSKAKDQMEQTKIDNESDVRAIRPGPRQTSEKKVSDKEKKVVQPVMPTSLRMTRSATQAAKQVPRTVSSTTARKPVTRAANENEPEGKVPSKGRPAKNVETKPDKGISCKVDSEENTLNSQTNATSGMNPDG
modifications: C-terminal eGFP, taxol-stabilized microtubules
